Results on three molecules are retold here after patent US20240352434, “COMPOSITIONS COMPRISING A VARIANT CAS12I3 POLYPEPTIDE AND USES THEREOF” (Arbor Biotechnologies, Inc., published 2024).

One series concerns the target T1, Cas12i3 K583R (Unidentified, K583R).
T1 chain: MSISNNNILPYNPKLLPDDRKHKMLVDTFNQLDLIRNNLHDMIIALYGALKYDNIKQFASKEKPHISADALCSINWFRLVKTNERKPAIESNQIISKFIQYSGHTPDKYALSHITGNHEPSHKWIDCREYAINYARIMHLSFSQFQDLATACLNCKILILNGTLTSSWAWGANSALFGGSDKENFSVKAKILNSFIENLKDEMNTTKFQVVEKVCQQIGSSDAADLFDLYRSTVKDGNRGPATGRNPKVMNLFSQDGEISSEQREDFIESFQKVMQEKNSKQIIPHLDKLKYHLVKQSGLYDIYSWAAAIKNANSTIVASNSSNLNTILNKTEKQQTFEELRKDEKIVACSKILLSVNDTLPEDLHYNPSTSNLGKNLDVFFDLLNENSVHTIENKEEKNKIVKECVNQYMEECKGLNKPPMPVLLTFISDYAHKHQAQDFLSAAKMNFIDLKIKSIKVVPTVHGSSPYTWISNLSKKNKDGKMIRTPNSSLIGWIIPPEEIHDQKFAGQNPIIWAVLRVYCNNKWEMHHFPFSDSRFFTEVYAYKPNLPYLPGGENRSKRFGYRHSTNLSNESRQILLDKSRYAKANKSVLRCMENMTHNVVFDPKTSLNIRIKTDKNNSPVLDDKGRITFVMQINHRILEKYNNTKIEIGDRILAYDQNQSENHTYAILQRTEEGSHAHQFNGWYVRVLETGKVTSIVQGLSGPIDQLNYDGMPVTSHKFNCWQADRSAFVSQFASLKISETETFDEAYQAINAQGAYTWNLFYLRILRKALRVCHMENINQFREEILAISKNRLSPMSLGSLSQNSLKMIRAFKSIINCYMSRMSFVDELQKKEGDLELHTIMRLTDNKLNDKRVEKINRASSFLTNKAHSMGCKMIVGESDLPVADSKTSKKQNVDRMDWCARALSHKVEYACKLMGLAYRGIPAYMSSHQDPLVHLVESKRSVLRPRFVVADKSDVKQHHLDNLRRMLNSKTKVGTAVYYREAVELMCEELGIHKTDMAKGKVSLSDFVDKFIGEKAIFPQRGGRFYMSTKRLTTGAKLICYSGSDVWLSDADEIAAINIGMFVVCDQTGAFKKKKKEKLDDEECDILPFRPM
Nature of the series: cell_activity; fold change in % indels, HEK293T; PAM not stated in example. Here is the method: (§1) Approximately 16 hours prior to transfection, 100 μl of 25,000 HEK293T cells in DMEM/10% FBS+Pen/Strep were plated into each well of a 96-well plate. On the day of transfection, the cells were 70-90% confluent. For each well to be transfected, a mixture of 0.5 μl of Lipofectamine 2000 and 9.5 μl of Opti-MEM was prepared and then incubated at room temperature for 5-20 minutes (Solution 1). […] In the case of negative controls, the crRNA was not included in Solution 2. The solution 1 and solution 2 mixtures were mixed by pipetting up and down and then incubated at room temperature for 25 minutes. Following incubation, 20 μL of the Solution 1 and Solution 2 mixture were added dropwise to each well of a 96 well plate containing the cells. 72 hours post transfection, cells are trypsinized by adding 10 μL of TrypLE to the center of each well and incubated for approximately 5 minutes. 100 μL of D10 media was then added to each well and mixed to resuspend cells. The cells were then spun down at 500 g for 10 minutes, and the supernatant was discarded. QuickExtract buffer was added to ⅕ the amount of the original cell suspension volume. Cells were incubated at 65° C. for 15 minutes, 68° C. for 15 minutes, and 98° C. for 10 minutes.
(§2) Samples for Next Generation Sequencing were prepared by two rounds of PCR. The first round (PCR1) was used to amplify specific genomic regions depending on the target. PCR1 products were purified by column purification. Round 2 PCR (PCR2) was done to add Illumina adapters and indexes. Reactions were then pooled and purified by column purification. Sequencing runs were done with a 150 cycle NextSeq v2.5 mid or high output kit.

For series [1], the target named is T2, Cas12i3 K583R N711R C724R (Unidentified, K583R,N711R,C724R).
T2 chain: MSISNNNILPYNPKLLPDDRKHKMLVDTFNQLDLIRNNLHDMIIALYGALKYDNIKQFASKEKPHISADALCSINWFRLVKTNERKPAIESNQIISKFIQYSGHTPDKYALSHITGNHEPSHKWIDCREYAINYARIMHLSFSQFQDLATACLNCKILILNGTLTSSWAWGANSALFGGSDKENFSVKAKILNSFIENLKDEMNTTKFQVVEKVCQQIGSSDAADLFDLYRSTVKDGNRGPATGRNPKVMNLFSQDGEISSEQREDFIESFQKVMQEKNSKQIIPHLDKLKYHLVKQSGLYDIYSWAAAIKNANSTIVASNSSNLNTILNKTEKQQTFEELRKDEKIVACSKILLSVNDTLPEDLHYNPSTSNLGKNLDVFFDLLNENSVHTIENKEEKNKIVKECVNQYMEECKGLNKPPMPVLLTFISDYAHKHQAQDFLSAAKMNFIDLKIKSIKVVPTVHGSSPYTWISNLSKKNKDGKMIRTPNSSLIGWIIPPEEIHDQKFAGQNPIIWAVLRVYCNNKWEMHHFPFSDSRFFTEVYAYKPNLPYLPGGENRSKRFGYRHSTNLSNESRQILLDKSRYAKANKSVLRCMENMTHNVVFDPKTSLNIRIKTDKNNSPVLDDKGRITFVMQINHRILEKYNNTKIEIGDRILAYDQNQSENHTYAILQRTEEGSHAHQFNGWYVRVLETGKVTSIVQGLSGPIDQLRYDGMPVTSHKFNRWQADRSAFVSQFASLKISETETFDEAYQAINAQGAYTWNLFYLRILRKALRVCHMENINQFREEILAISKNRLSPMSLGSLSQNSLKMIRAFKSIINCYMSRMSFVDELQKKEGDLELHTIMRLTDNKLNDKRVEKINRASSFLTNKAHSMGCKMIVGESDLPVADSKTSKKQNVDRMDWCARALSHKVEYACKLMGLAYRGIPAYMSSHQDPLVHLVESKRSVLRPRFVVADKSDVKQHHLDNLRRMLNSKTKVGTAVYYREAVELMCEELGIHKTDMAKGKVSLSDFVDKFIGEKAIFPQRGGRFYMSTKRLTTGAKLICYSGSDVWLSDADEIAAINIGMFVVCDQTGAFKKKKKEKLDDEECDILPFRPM
The description is as above. Here is the method:
as §1, §2

B1: EMX1_T5 crRNA ; EMX1_T5 target (ssRNA ; dsDNA)
RNA: AUAGUGUGUCCUUAGUUGACAUUAUUAUUCCCAUAGGGAAGG
DNA 1: TATTATTCCCATAGGGAAGG
DNA 2: CCTTCCCTATGGGAATAATA
Consider B1, for which the binding signal was 1.3 fold of wild-type with Cas12i3 K583R and 1.99 fold of wild-type in series [1].

B2: AAVS1_T3 crRNA ; AAVS1_T3 target (ssRNA ; dsDNA)
RNA: AUAGUGUGUCCUUAGUUGACAUGUGAGAAUGGUGCGUCCUAG
DNA 1: GTGAGAATGGTGCGTCCTAG
DNA 2: CTAGGACGCACCATTCTCAC
B2: the binding signal with Cas12i3 K583R was 1.81 fold of wild-type; in series [1] it was 2.96 fold of wild-type.

B3: VEGFA_T2 crRNA ; VEGFA_T2 target (ssRNA ; dsDNA)
RNA: AUAGUGUGUCCUUAGUUGACAUAAUCCUCCACCAGUCAUGGU
DNA 1: AATCCTCCACCAGTCATGGT
DNA 2: ACCATGACTGGTGGAGGATT
On to B3, for which the binding signal with Cas12i3 K583R was 1.74 fold of wild-type; in series [1], 2.57 fold of wild-type.
